From patent publication US20220411492A1 (QILU PHARMACEUTICAL, published 2022)
Residue numbers refer to the chain shown, from its start. Names may count otherwise. Where two headings read alike, the source gives them in different places. Blank lines part the entries; values can stand above or below the molecule they belong to.

Columns and labels:
[1] = target: murine CLDN18.2 (mCLDN18.2) (murine) (UniProt P56857); experiment: FACS, HEK293-mCLDN18.2 cells
[2] = target: T1, human Claudin 18.2 (hCLDN18.2) (human, UniProt P56856-2 1-261); experiment: cell-based or functional assay
[3] = target: T1, human Claudin 18.2 (hCLDN18.2); experiment: FACS, HEK293-hCLDN18.2 cells
[4] = target: T1, human Claudin 18.2 (hCLDN18.2); experiment: FACS, HEK293-hCLDN18.2 cells; remark: listed apart in the source
[5] = target: T1, human Claudin 18.2 (hCLDN18.2); experiment: FACS, PDX-hCLDN18.2 gastric cancer tumor tissue-derived cells
[6] = target: T1, human Claudin 18.2 (hCLDN18.2); experiment: cell-based or functional assay; remark: listed apart in the source
[7] = target: murine CLDN18.2 (mCLDN18.2) (murine) (UniProt P56857); experiment: FACS, HEK293-mCLDN18.2 cells; remark: listed apart in the source
[8] = target: T1, human Claudin 18.2 (hCLDN18.2); experiment: FACS, HEK293-hCLDN18.2 cells; remark: listed apart in the source
[9] = target: T1, human Claudin 18.2 (hCLDN18.2); experiment: FACS, PDX-hCLDN18.2 gastric cancer tumor tissue-derived cells; remark: listed apart in the source
[10] = target: T1, human Claudin 18.2 (hCLDN18.2); experiment: FACS, HEK293-hCLDN18.2 cells
Method: Following transient expression in mammalian cell lines, affinity assays were performed using HEK293-hCLDN18.2 cells and monoclonal cell supernatants were screened by FACS.

[11] = target: T1, human Claudin 18.2 (hCLDN18.2); experiment: cell-based or functional assay; remark: listed apart in the source
[12] = target: T1, human Claudin 18.2 (hCLDN18.2); experiment: cell-based or functional assay; remark: listed apart in the source
[13] = target: T1, human Claudin 18.2 (hCLDN18.2); experiment: FACS, PDX-hCLDN18.2 gastric cancer tumor tissue-derived cells
Method: (§1) Using flow cytometry measurement, the mean fluorescence intensity (hereinafter referred to as MFI) for each concentration was calculated by the software, and then the half binding concentration (EC₅₀) and the mean maximum fluorescence intensity (Top MFI) were calculated by GraphPad software, and the results were shown in Table 11.

[14] = target: T1, human Claudin 18.2 (hCLDN18.2); experiment: FACS, HEK293-hCLDN18.2 cells; remark: listed apart in the source
Method: as §1

B2: hu253C4-N31Q-1 (antibody, V domains shown)
VH: QVQLVQSGAEVKKPGASVKVSCKASGYIFTSYWIHWVRQAPGQGLEWMGRFYPGTGTAYYNENFEGRVTMTRDTSISTAYMELSRLRSDDTAVYYCAREGYGKGNSMDYWGQGTTVTVSS
VL: DIVMTQSPDSLAVSLGERATINCKSSQSLLQSGNQKNYLTWYQQKPGQPPKLLIYWASTRESGVPDRFSGSGSGTDFTLTISSLQAEDVAVYYCQNDYYFPFTFGGGTKLEIK
EC50 [1]: 0.19 µg/mL | Mean maximum fluorescence intensity (Top MFI) [1]: 65000 MFI | EC50 [4]: 0.216 nM | Mean maximum fluorescence intensity (Top MFI) [4]: 23000 MFI | EC50 [5]: 12 nM | Mean maximum fluorescence intensity (Top MFI) [5]: 16300 MFI | ADCC EC50 [6]: 0.024 µg/mL | ADCC Maximum lysis (%) [6]: 54.9% | CDC EC50 [6]: 0.175 µg/mL | CDC Maximum lysis (%) [6]: 96.3%

B4: hu299B2-S32A-1 (antibody, V domains shown)
VH: B2 VH with S31N, F51I, T57N, A58T, N63K, E65T, I76T, A79V, R85S, D89E
VL: B2 VL with Q31N, S32A, D97A, F100Y, F102Y
notes: also called humanized antibody hu299B2-S32A
CDC EC50 [11]: 0.125 µg/mL | CDC Maximum lysis (%) [11]: 99.2% | EC50 [1]: 0.201 µg/mL | Mean maximum fluorescence intensity (Top MFI) [1]: 88800 MFI | ADCC EC50 [12]: 0.022 µg/mL | ADCC Maximum lysis (%) [12]: 57.9% | EC50 [13]: 29.7 nM | Mean maximum fluorescence intensity (Top MFI) [13]: 25200 MFI | EC50 [14]: 0.407 nM | Mean maximum fluorescence intensity (Top MFI) [14]: 29500 MFI

B5: hu253C4-N31Q-2 (antibody, V domains shown)
VH: B2 VH
VL: B2 VL with A19V, I21L, I81V, L84V
EC50 [1]: 0.026 µg/mL | Mean maximum fluorescence intensity (Top MFI) [1]: 36800 MFI | EC50 [4]: 0.361 nM | Mean maximum fluorescence intensity (Top MFI) [4]: 29000 MFI | EC50 [5]: 11.4 nM | Mean maximum fluorescence intensity (Top MFI) [5]: 15600 MFI | ADCC EC50 [6]: 0.037 µg/mL | ADCC Maximum lysis (%) [6]: 58.8% | CDC EC50 [6]: 0.149 µg/mL | CDC Maximum lysis (%) [6]: 97.5%

B6: hu299B2-S32A-3 (antibody, V domains shown)
VH: B2 VH with S31N, F51I, T57N, A58T, N63K, E65T, I76T, A79V, R85S, D89E
VL: B2 VL with A19V, I21M, Q31N, S32A, I54F, L84V, Y93H, D97A, F100Y, F102Y
notes: as for B4
CDC EC50 [11]: 0.092 µg/mL | CDC Maximum lysis (%) [11]: 99.8% | EC50 [1]: 0.342 µg/mL | Mean maximum fluorescence intensity (Top MFI) [1]: 103000 MFI | ADCC EC50 [12]: 0.022 µg/mL | ADCC Maximum lysis (%) [12]: 69.1% | EC50 [13]: 26.1 nM | Mean maximum fluorescence intensity (Top MFI) [13]: 24300 MFI | EC50 [14]: 0.399 nM | Mean maximum fluorescence intensity (Top MFI) [14]: 40000 MFI

The next lines start with the values.

EC50 [1]: 1.01 nM | Mean maximum fluorescence intensity (Top MFI) [1]: 4190 MFI | ADCC EC50 [2]: 0.021 µg/mL | ADCC Maximum lysis (%) [2]: 31.8% | CDC EC50 [2]: 1.19 µg/mL | CDC Maximum lysis (%) [2]: 87.4% | EC50 [3]: 0.156 µg/mL | Mean maximum fluorescence intensity (Top MFI) [3]: 2840 MFI | Mean maximum fluorescence intensity (Top MFI) [4]: 26900 MFI | EC50 [5]: 24.9 nM | Mean maximum fluorescence intensity (Top MFI) [5]: 5700 MFI | CDC EC50 [6]: 1.55 µg/mL | CDC Maximum lysis (%) [6]: 87.8% | EC50 [7]: 0.136 µg/mL | Mean maximum fluorescence intensity (Top MFI) [7]: 86400 MFI | EC50 [8]: 0.881 nM | Mean maximum fluorescence intensity (Top MFI) [8]: 5450 MFI | EC50 [9]: 63.9 nM | Mean maximum fluorescence intensity (Top MFI) [9]: 7160 MFI
Molecule: chimeric antibody ch-175D10 from patent CN103509110B

EC50 [10]: 0.207 µg/mL | Mean maximum fluorescence intensity (Top MFI) [10]: 6890 MFI
B1: ch-253C4-S32A (antibody, V domains shown)
VH: QVQLKQSGAELVRPGASVSLSCKTSGYIFTSYWIHWVKQRSGQGLEWIGRFYPGTGTAYYNENFEGKATLTADRSSSTAYMQLSSLKSDDSAVYFCTREGYGKGNAMDYWGQGTSVTVSS
VL: DIVMTQSPSSLTVTTGEKVTLSCKSSQSLLNAGNQKNYLTWYQQKSGQPPELLIYWASTRESGVPDRFTGSGSGTDFTLTVSSVQAEDLAVYYCQNDYYFPFTFGGGTKLEIK
notes: also called chimeric antibody of 253C4-S32A

EC50 [1]: 0.03 µg/mL | Mean maximum fluorescence intensity (Top MFI) [1]: 42100 MFI | EC50 [4]: 0.145 nM | Mean maximum fluorescence intensity (Top MFI) [4]: 18800 MFI | EC50 [5]: 25.6 nM | Mean maximum fluorescence intensity (Top MFI) [5]: 21600 MFI | ADCC EC50 [6]: 0.038 µg/mL | ADCC Maximum lysis (%) [6]: 70.3% | CDC EC50 [6]: 0.128 µg/mL | CDC Maximum lysis (%) [6]: 96.1%
B3: hu253C4-N31Q-3 (antibody, V domains shown)
VH: B2 VH with A24T, M70L, R72A, A97T
VL: B2 VL

CDC EC50 [11]: 0.123 µg/mL | CDC Maximum lysis (%) [11]: 99.9% | EC50 [1]: 0.281 µg/mL | Mean maximum fluorescence intensity (Top MFI) [1]: 84900 MFI | ADCC EC50 [12]: 0.024 µg/mL | ADCC Maximum lysis (%) [12]: 63.2% | EC50 [13]: 29.3 nM | Mean maximum fluorescence intensity (Top MFI) [13]: 23000 MFI | EC50 [14]: 0.318 nM | Mean maximum fluorescence intensity (Top MFI) [14]: 31200 MFI
B7: hu299B2-S32A-4 (antibody, V domains shown)
VH: QVQLVQSGAEVKKPGASVKVSCKTSGYIFTNYWIHWVRQAPGQGLEWMGRIYPGTGNTYYNEKFTGRVTLTADTSTSTVYMELSSLRSEDTAVYYCSREGYGKGNSMDYWGQGTTVTVSS
VL: B2 VL with Q31N, S32A, D97A, F100Y, F102Y
notes: as for B4

CDC EC50 [11]: 0.129 µg/mL | CDC Maximum lysis (%) [11]: 99.7% | EC50 [1]: 0.111 µg/mL | Mean maximum fluorescence intensity (Top MFI) [1]: 90400 MFI | ADCC EC50 [12]: 0.028 µg/mL | ADCC Maximum lysis (%) [12]: 68.1% | EC50 [13]: 24.6 nM | Mean maximum fluorescence intensity (Top MFI) [13]: 22900 MFI | EC50 [14]: 0.463 nM | Mean maximum fluorescence intensity (Top MFI) [14]: 36700 MFI
B8: hu299B2-S32A-2 (antibody, V domains shown)
VH: B7 VH with T24A, L70M, A72R, S97A
VL: B2 VL with I21M, Q31N, S32A, I54F, Y93H, D97A, F100Y, F102Y
notes: as for B4
